Results published in patent publication US20050130920A1 (published 2005).

Target: T1, HLA-A2.1 on T2 cells (empty or unstable surface MHC class I, with added beta-2 microglobulin) (human)
T1 construct: it is treated here as the same molecule; also called HLA-A*0201
Assay: T2 cell HLA-A2.1 stabilisation, W6/32 staining, flow cytometry
Description: T2 cells, which express empty or unstable MHC molecules on their surfacer were washed twice and suspended at 5×10⁶ cells/ml in serum-free complete Iscove's modified Dulbecco's medium (IMDM). B2 microglobulin (Sigma, St. Louis, Mo.) was added at 5 μg/ml and the cells distributed to a 96-well U-bottom plate at 5×10⁵ cells/well. Peptides were added at 100, 10, 1 and 0.1 μg/ml. The plate was rocked gently for 2 minutes and then incubated for 4 hours in a 5% CO₂ incubator at 37° C. After the unbound peptide was removed by washing twice with IMDM, a saturating amount of monoclonal antibody W6/32 (Sigma) was added. After incubation for 30 minutes at 4° C., cells were washed with PBS supplemented with 1% heat-inactivated FCS, 0.1% (w:v) sodium azide, pH 7.4-7.6 (staining buffer), and incubated with fluorescein isothiocyanate (FITC)-conjugated goat F(ab′) antimouse-IgG (Sigma) for 30 min at 4° C. and washed four times as before. The cells were resuspended in staining buffer and fixed by adding a quarter volume of 2% paraformaldehyde.

binding result: binds
B1: tyrosinase 207-216, FLPWHRLFLL (candidate tyrosinase housekeeping epitope) (peptide)
peptide: FLPWHRLFLL
notes: Synthetic 10-mer added to T2 cells at 100, 10, 1 and 0.1 ug/ml
